# In the supplement of paper PMC12636428:
# Test system: Saccharomyces cerevisiae
# Experiment: transcriptional activation domain activity (GFP:mCherry ratio, weighted mean of sorted bins, harmonized to initial dataset scale) (arbitrary fluorescence ratio units); higher = stronger transcriptional activation
# Settings: beta-estradiol 1 µM; induction time 4 h
# In short: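 Protein tiles carrying barcodes and fused to an estradiol-inducible synthetic transcription factor were placed at the URA3 locus of yeast diploids with a GFP reporter. Following 4 hours at 30 °C in SC with 1 uM beta-estradiol, cells were sorted into 8 GFP:mCherry bins, barcodes were sequenced, and tiles with fewer than 50 reads were discarded. Activation activity is given as the read-weighted mean of bin median fluorescence, averaged across barcodes and linearly mapped to the initial dataset scale.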
row,Sequence,transcriptional activation domain activity
1,HRGVSVGIQFAPAGSSWYVEPHKCLIWKSFYFLMMYFMHMCVEYVLLLRVLAL,41200
2,HRQTTLSVALPCGELHIAYLVAGLLFHGATCDDIVVIMLCARILFSVCKIYYH,77100
3,HRRHHVLLPHPAHTLLKGCFEPAFHNSIWHILSCHMYIPCTPILLLLIIQHVL,33200
4,HRVSMFLGYNPGNIVSNCRRCLDQWGPDILIHPSRIYLVVLPWLPPFFRKQLR,56400
5,HSACDIYYDNICLRLRLEGDLESYSYTARIVVVVLQLERRPMRGVPFITLVFD,29400
6,HSALSRSEVSGTGRKAYAQKGRGKARVGSLRAPHFRGGGRAFPVKPRDHSTKL,17000
7,HSDLLNDMDSASQRASHNASGFPNFLDTSCSSSFDDHFIFTNNLPFLNNNSIN,60800
8,HSGVLRDVHVVFQDRSFCARLAEQIGRRLRMIYSNWRETCCMEMLITLSLRLF,73200
9,HSILGFRFPRLRIMRCITCSSMRPDLRWLTFPIFENLEVFITSLYLTRKYWIQ,58300
10,HSITNFELVEDAPHQVGFSTPQMTAKQLMESVSELDLPPLTLDEPPQAIKFNL,75900
11,HSKHSAEGIVVSKYLMCFLLFCVWIFTHLVEVAVLLLQIIYNTLFILRSLFLH,63800
12,HSLGSNASIDHLYTYTHAYIYTLYIWLPKMFSFFPFAIIFFLCMLLLFFIFIF,64600
13,HSLISWLLKSLENGAGAIVIRKLCSALVTHFVRFSHLWPLCVRSLLYCLHANR,71400
14,HSLLRGDKETGVCVIEMTPFKQGIDSGAIYGKKTVLVVFCLVKLLLSQAVPES,28600
15,HSLSTIGIDVSHWEPFPLASMQRALAYELHMFCPTLRTVIVWLRRYRYMWRWS,45200
16,HSMPSLATICGVCFIVDVYCIMRISLLHSYWIPMRRTLPLLAFPVVSFIFLFF,79400
17,HSPEAANAALRAMDGHSLEGHALKIQGSHRGADAAEERRKEDAAKKATGTKIL,44000
18,HSPYLNSEADFSQILSSAPPVHHDPNETHQENQDIIDRFANSSQEHNEYILQY,66200
19,HSQYMGYFGGYLVCHLWFTHRFVGMLRLGVVDVVWRFCVYLGLVGWSLGVCYS,72500
20,HSRSPSRHRRRSYSRSRRYDSRSPRRRRSGSPSRRIVDEEEAAVTDGFIRAVA,37300
21,HSSAPASPASPSPNSAPTPPATTPPPPPSPAAPRRTHSPPTPGTRRPSTTTPS,53500

row,Sequence,transcriptional activation domain activity
1,HSSIEWLMGWPAGLKLNKELALFLGDLFLWVIEYWSSCISALQPLLPHMVWFI,39900
2,HSSSPEDQERKRSKSRLRDAAAAGAAALGVNEYENRKDRKKRERRRERSERRY,24200
3,HSSTAFSGYIDDPFNLNEILPLPASDFKLNTVTNLNEIDFTNIFTKSPHPHSG,136000
4,HSTLLYCHLLLLPFLSSCWALFFLFPLSFGSLFFLFFFFLFLFGAFSFFLSSL,39600
5,HSVHAGLIFPLFHRHCFYMLESSLRTKSDRLVFNSLSSHAGVIAWLRTQGVLQ,65500
6,HTFVRICKLAGDLIDWVGMCVDCGKCSATQGRDCLDVIMRLSIMAVHGLRFVG,51400
7,HTKSTESLVQLDDADGSRLDKVSGSLIQSLLASLGAQHKLVADAALTFLTAGR,43900
8,HTQENEKVMWNIGSWNAPSLTNSWDSPPGNRTGAVTIGDESINGSEMPDFSLD,36100
9,HTQPNLVPWLRCFPADAISVELISHEYIIRILRPILPADWQRPLFYSHRIRMY,28900
10,HTRSLRYGKLRNGTLVRVPPTLIVRLKSHFHSLPCGVDLVLGLNGYIWVCMHI,52700
11,HTVGGKPSELMRSSEEDEDKICGAIGCDDTESAPSNACGRCKRVYYCSRACQT,42800
12,HVAMRAAVKANNSVMHRLLRNWGENRRRHFHGLLLVRLFRTTLVFSCADEVAA,53300
13,HVDQWTVIEQCLLYHQTNFIYFLFFAPLPPFLCLFFLLFVSLVFLCFDPFPLI,42500
14,HVDSYLRYLISHCKGRISSRGLVTARFLERRMRHLVWLLKVECVKWEYSPYTR,79400
15,HVERGRDVTKGFVKCHTHMRTTCVGSIRFSHAASFAPSVCLGVGVKSLDRRPL,37300
16,HVFPILLRLVGGYALLRKLIDSIEEAYLAYHMVASQTYFMSTSLTFCAILARM,71200
17,HVGRLMPIIAYFRAVIKCIEMLGVKRPVLVCPLSSFHGGFYVGGLMFQCVDRK,62600
18,HVLEYACSIAISRQQERRKRKAIRKSESLNALAKALLRLLSVFSTIRLASGQL,91500
19,HVNVPTQFLSMVCPMAESIVEMVNGRMNLVGTTNYWRMIILLRPYVFQCGAAI,44200
20,HVQIASSDVIKRVSSRVAWCLKSILTILLNVNQLEMSVLRSRVLRLIVFFLHY,62300
21,HVYGPTLVVHRYSLPLLFYYFVLFMFLESLPRLFRCISLFFQLAQLLMLLVPI,34100

row,Sequence,transcriptional activation domain activity
1,HWDGVCRLFFFIYYIYFYFSMRACLLVLILCFESIVFGLVSFLVYLFSPFFFR,40900
2,HWKLNLYFMLTNVIVVLPLYQVYIYLLGCHPKSPLYHHRVKLSVFAWSIWFYC,36200
3,HWRAFVTGGGSAFWLLAYGIFYWASRLSLDSFTSVILYLGYLVLLALMDFLVT,20300
4,HWSYARNANMIVNFFYKNIMGIGVLWWFQIYCGWSTTYVFEYTYLLFWNVFWS,56200
5,HWSYYRNGNMIINFFYKEIINIGYLFWFQIYCAWSTAQAIDYVYLLFWNAFWT,77100
6,HYFLVIMVLGMIELLRFPETRDAGVSLIRELLAFKFAKTSWDVVICNQLEKYL,41300
7,HYNALNGRWKVFRNEKDEDSIRVVAGMVWWGKILVVTCVEKGVFQIRLFSSIN,7550
8,HYRIRLIYFMHFVAFGFGLSSILVNLFLCRPLRKNWMTDVNGRCFNRDAFYYA,58600
9,IAAAAEQEEEDEASTSSTNTSNGDANARAHAHAHWESRRERELHADHRGGAGG,31600
10,IAAAGSNAASGHPDAKRAKTGASGSRAGSPSGSPPGSKPASRAGSPGAPRVPA,16900
11,IAHRYLVGYVYVRTHSQTGGLVYIWLLKRLGSLLSLQPILLGLIFLSRHLWIE,55000
12,IAILRLYSEPDVDLLRLSSQVLAASLLLDDHFICDIKNIRSVVAMIPRVLTLP,46800
13,IAIQVMNRVLFFKAFKNVTRYSCAYKLCLVFFFFYIVINGKNFYVIEYAHLSM,49300
14,IAKEIGKRLGFDENSEISYLAGIWSHCIAQQLIWNVAGGLLRVRGWLWKINLS,79900
15,IALCEAVYIWLAKQLYQEFGWKIYKKIGADLIKRRMYRDYHICLMLLKLDLFF,64200
16,IAMQPGEHQYDFEAHDFGLDLSDDLITQLEAGIGEYAWGSMPMDGNFWDQLYW,127000
17,IAPCGSWTPYTCLILGSIISLFIDFDVFAPFSYRGFITSYFGLAWFWFMFLFW,56200
18,IAQLRRDLFHAVWRLILTPALAEAYCHGIVIMCGDGVLRRVFPRFLLYSADYP,63900
19,IAQRLEILIYSHIVCIPLIASFSCLSWIFWMEYYFAWWFDSVITIRDINWHML,36500
